Results on one molecule are retold here after US8987424B2, “CA6 antigen-specific cytotoxic conjugate and methods of using the same” (ImmunoGen, Inc., priority 2003, dated 2015).

For one data set, the system named is HeLa tumor xenografts. In words: Subcutaneous HeLa xenograft efficacy study. Type of data set: in vivo, SCID mice. The method, then:
OVCAR5 (FIG. 26A and FIG. 26B), TOV-21 G (FIG. 26C and FIG. 26D), HPAC (FIG. 26E and FIG. 26F), and HeLa (FIG. 26G and FIG. 26H) cells were inoculated on day 0, and immunoconjugate treatments were given on day 6 and 13. PBS control animals were euthanized once tumor volumes exceeded 1000 mm^3. The conjugate was given at a dose of 600 μg/kg DM1, corresponding to an antibody concentration 27.7 mg/kg. Tumor volume (FIG. 26A, FIG. 26C, FIG. 26E, and FIG. 26G) and body weight (FIG. 26B, FIG. 26D, FIG. 26F, and FIG. 26H) of the mice were monitored during the course of the study.
muDS6-DM 1 activity was further tested on a panel of subcutaneous xenograft models (see FIG. 26). […] OVCAR5 cells and TOV-21 G are ovarian tumor cell lines; HPAC is a pancreatic tumor cell line; HeLa is a cervical tumor cell line. OVCAR5 and TOV-21G cells have low surface CA6 expression; HeLa cells have an intermediate level of surface CA6 expression; HPAC cells have a high CA6 density of surface expression. TOV-21G and HPAC cells are maytansine sensitive; OVCAR5 and HeLa cells are 2-7-fold less maytansine sensitive.
The 4 cell-lines were grown in vitro, collected, and 1×10^7 cells in a 100 μL of serum free medium were injected under the right shoulder of each mouse (6 mice per model) and allowed to grow for 6 days to an average tumor volume of 57.6±6.7 and 90.2±13.4 mm^3 for the test and control groups respectively of OVCAR5, 147.1±29.6 and 176.2±18.9 mm^3 for the test and control groups respectively of HPAC, 194.3±37.2 and 201.7±71.7 mm^3 for the test and control groups respectively of HeLa, and 96.6±22.8 and 155.6±13.4 mm^3 for the test and control groups respectively of TOV-21G, at which time drug treatment was initiated. For each model three control mice were treated with two weekly doses of PBS and three test mice were treated with two weekly doses of conjugate (600 μg/kg DM1) intravenously. Toxic responses were monitored daily during the treatment and tumor volumes and body weights were monitored throughout the study. […]

The test system of data set [1] is A375 cells (antigen negative). In words: Clonogenic assay. Type of data set: cell-based, human. To be noted: 3×10^−9 M, highest concentration tested. The method, then: (§1) The cytotoxicity of maytansinoid conjugated muDS6 antibody was examined using 2 different assay formats in various DS6 positive cell lines. Clonogenic assays were conducted where cells (1000-2500 cells/well) were plated on 6-well plates in 2 ml of conjugate diluted in culture media. […] The wells were washed with PBS and the colonies were stained with a 1% w/v crystal violet/10% v/v formaldehyde/PBS solution. Unbound stain was then washed thoroughly from the wells with distilled water, and the plates were allowed to dry. The colonies were counted using a Leica StereoZoom 4 dissecting microscope.
(§2) Plating efficiency (PE) was calculated as the number of colonies/number of cells plated. Surviving fraction was calculated as PE of treated cells/PE of non-treated cells. The IC50 concentration was determined by graphing the surviving fraction of cells vs. the molar concentration of the conjugate.

The test system of data set [2] is cervical cell lines (HeLa, KB, and WISH). In words: Clonogenic assay. Type of data set: cell-based, human. The method, then:
as §1, §2

The subject of another data set is pancreatic cell lines. In words: Clonogenic assay. Type of data set: cell-based, human. Here is the method:
as §1, §2

Another data set deals with KB tumor xenografts. In words: Subcutaneous KB tumor xenograft efficacy study. Type of data set: in vivo, SCID mice. The method, then:
Tumor cells were inoculated on day 0, and the first treatment was given on day 6. Immunoconjugate treatments continued daily for a total of 5 doses. PBS control animals were euthanized once tumor volumes exceeded 1500 mm^3. The conjugate was given at a dose of 150 or 225 μg/kg DM1, corresponding to antibody concentrations of 5.7 and 8.5 mg/kg respectively. The body weights (FIG. 25B) of the mice were monitored during the course of the study.
A subcutaneous model of the human cervical carcinoma cell-line, KB, was developed. KB cells were grown in vitro, collected, and 5×10^6 cells in a 100 μL of serum free medium were injected under the right shoulder of each mouse and allowed to grow for 6 days to an average tumor volume of 144±125 mm^3 at which time drug treatment was initiated. Mice were given either PBS, conjugate at 150 μg/kg DM1, or conjugate at 225 μg/kg DM1 (2 mice per group) intravenously every day for 5 days. Toxic responses were monitored daily during the treatment. Tumor volumes (FIG. 25A) and corresponding body weights (FIG. 25B) were monitored throughout the study.

Where [3] appears, read: 600 μg/kg DM1, two weekly doses.
[4] abbreviates: 150 μg/kg DM1 i.v. daily for 5 days.

B1: DS6-DM1: muDS6 antibody modified with SPP and conjugated to the maytansinoid DM1 (conjugate)
VH: QAYLQQSGAELVRSGASVKMSCKASGYTFTSYNMHWVKQTPGQGLEWIGYIYPGNGATNYNQKFKGKATLTADPSSSTAYMQISSLTSEDSAVYFCARGDSVPFAYWGQGTLVTVSA
VL: QIVLTQSPAIMSASPGEKVTITCSAHSSVSFMHWFQQKPGTSPKLWIYSTSSLASGVPARFGGSGSGTSYSLTISRMEAEDAATYYCQQRSSFPLTFGAGTKLELKR
As for B1, the body weight entry is “no weight loss was observed” with HeLa tumor xenografts (setting [3]) and “no weight loss” with KB tumor xenografts (150 μg/kg DM1). The “tumor status at day 61” value in the data set on HeLa tumor xenografts (setting [3]) is listed as “tumor-free”. The tumor regression result with HeLa tumor xenografts (600 μg/kg DM1 i.v., two weekly doses) is reported as “complete tumor regression in all mice”. Moreover, in data set [1], the “effect of conjugate on antigen negative cells” value is listed as “only slightly affected”. The “sensitivity to the conjugate” value is listed as “sensitive” in data set [2] and “None of the pancreatic cell lines appeared to have been affected” with pancreatic cell lines. Besides, the “time to complete tumor regression after treatment initiation” value with KB tumor xenografts (setting [4]) stood at 18 days; with KB tumor xenografts (225 μg/kg DM1 i.v. daily for 5 days), 14 days. The tumor delay entry in the data set on KB tumor xenografts (setting [4]) is reported as “approximately 70 days”. Besides, the treatment outcome in the data set on KB tumor xenografts (225 μg/kg DM1, no tumor recurrence at day 120) is “cures”. Also, the “visible signs of toxicity” value in the data set with KB tumor xenografts (during the 5-day treatment course, 150 and 225 μg/kg DM1) was “no visible signs of toxicity”.
